Measured values published in patent publication US5156956A, “Transgultaminase” (Ajinomoto Co., Inc., priority 1987, dated 1992).

Legend:
Rabbit myosin = assay: Gelation, test tube inversion method; assay type: biochemical; parameters: key: .smallcircle.: gelled; Δ: weakly gelled; x: remained as solution; conditions: BTGase 0.02 U/mg protein, 55° C., 1 h, MTGase 0.1 U/mg, 37° C.
Experimental: 2) Rabbit myosin was prepared as follows for use as a substrate for BTGase.
The concentration of protein was 1.5%. BTGase was added to the myosin under the same conditions as under 1) above to examine gelation ability.
(§1) For purposes of comparison, the results of gelation ability test with MTGase are also shown. The amount of MTGase added was 0.1 U per 1 mg of substrate protein.

Prawn myosin = assay: Gelation, test tube inversion method; assay type: biochemical; parameters: key: .smallcircle.: gelled; Δ: weakly gelled; x: remained as solution; conditions: 5 ml, 3.6 units of BTGase, 35° C., 35 minutes at maximum, MTGase 0.1 U/mg, 37° C., 1 h
Experimental: 3) Prawn myosin was prepared as follows for use as a substrate for BTGase.
The shell of a fresh (live) prawn (body length of about 5 cm) was peeled off and the prawn flection muscle was taken out. After mincing, the mince was washed with ice water and homogenized under cooling in the presence of 0.1 mM DTT and 0.1 mM PMSF. By centrifugation, actomyosin was extracted and separated therefrom. By further ultracentrifugation at 10^5 ×g for 60 minutes, actin was removed to give a myosin-rich fraction. Further dilution precipitation and ultracentrifugation were repeated to give purified prawn myosin. […] By immersing in a water bath at 35° C., the reaction was initiated and carried out for 35 minutes at maximum.
as §1

[1] = Sausage: rheometer and organoleptic evaluation; conditions: 1 unit per 1 g of dry pork, 55° C. 2 h, then 80° C. 30 min
Experimental: Physical properties were measured with a rheometer (manufactured by Yamaden Co., Ltd.) and organoleptic evaluation (n=10) was performed. The amount of BTGase added was 1 unit per 1 g of dry pork. The enzyme reaction was carried out at 55° C. for 2 hours. After completion of the reaction, heating was performed at 80° C. for 30 minutes to make a product. As a control, BTGase-free product was used.

B1: BTGase: microorganism-derived transglutaminase; in Examples 4-11 the freeze dried product prepared in Example 1 (S. mobaraense, i.e. BTG-1) (protein, UniProt P81453 77-407, looked up)
Protein-glutamine …: DSDDRVTPPAEPLDRMPDPYRPSYGRAETVVNNYIRKWQQVYSHRDGRKQQMTEEQREWLSYGCVGVTWVNSGQYPTNRLAFASFDEDRFKNELKNGRPRSGETRAEFEGRVAKESFDEEKGFQRAREVASVMNRALENAHDESAYLDNLKKELANGNDALRNEDARSPFYSALRNTPSFKERNGGNHDPSRMKAVIYSKHFWSGQDRSSSADKRKYGDPDAFRPAPGTGLVDMSRDRNIPRSPTSPGEGFVNFDYGWFGAQTEADADKTVWTHGNHYHAPNGSLGAMHVYESKFRNWSEGYSDFDRGAYVITFIPKSWNTAPDKVKQGWP
Gelation, Rabbit myosin 1.5% (Rabbit myosin): .smallcircle.
Gelation, Prawn myosin 3.6% (Prawn myosin): .smallcircle.
Viscosity Coefficient [1]: 1.92 × 10^9 dyn.sec.cm^-2
